Reference: the supplement of paper PMC12764529
± gives the half width of the 95% confidence interval.

Key:
[1] = folding stability dG unfold from chymotrypsin proteolysis; higher = more stable
Summary of the method: (§1)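 K50 was inferred by Bayesian fitting of sequencing counts obtained after protease digestion of designed mini-proteins. Unfolding free energy was derived by comparison with a sequence-predicted unfolded-state K50 and a shared folded-state K50, for each protease or both combined. The mini-proteins were under 80 residues, had no cysteine, were carried in a PA-tagged cDNA display construct, and were kept only if AlphaFold2 dimer inter-PAE exceeded 15.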

[2] = folding stability dG unfold from trypsin proteolysis; higher = more stable
Summary of the method: as §1

[3] = folding stability dG unfold (combined trypsin and chymotrypsin); higher = more stable
Summary of the method: as §1

Sequence	folding stability dG unfold [1] [kcal/mol]	folding stability dG unfold [2] [kcal/mol]	folding stability dG unfold [3] [kcal/mol]
SAGGSAGGSAGGMIKTKDGKVLEFKSLEEALAALKELGVDEVEIEELEPEGVVKVKVKPSAGGSAGGSAGGS [r10_1191_TrROS_Hall]	1.34 ± 0.039	0.301 ± 0.03	1.11 ± 0.11
SAGGSAGGSAGGMIKVTFKIPGKNETIEIDFDSEEELEEKFKELREKLGYNIEVVEIEESAGGSAGGSAGGS [r10_1087_JUSTAS]	2.19 ± 0.12	2.19 ± 0.19	1.92 ± 0.2
SAGGSAGGSAGGMILVQDKKTKKWYEIKPGESLENLEFPEGVKEVRIYVFNEDGELVELDSAGGSAGGSAGG [r7_763_TrROS_Hall]	2.45 ± 0.027	1.39 ± 0.043	2.28 ± 0.12
SAGGSAGGSAGGMITTGITVSATDPNSSTSYTVTVPSSVPSSTFPANTAVGSAALAKLLASAGGSAGGSAGG [r17_412_JUSTAS]	-0.225 ± 0.25	-0.554 ± 0.19	-0.449 ± 0.21
SAGGSAGGSAGGMITVEVEVPGDEAEAEARREAIAEELAAEGHEDVPITVTFVSPEEAASAGGSAGGSAGGS [r10_1099_JUSTAS]	0.388 ± 0.047	1.28 ± 0.11	0.64 ± 0.36
SAGGSAGGSAGGMIVIEVERKEGEEERKEVIVIPNDPEKAEAEAKKLAEEGPVEKVTIKKESAGGSAGGSAG [r3_310_JUSTAS]	1.3 ± 0.066	0.243 ± 0.11	1.04 ± 0.28
SAGGSAGGSAGGMIVTLPKTGEVLLVPEEEIEAFLAALPESFPKEDVEVYEYSPEEEPLSAGGSAGGSAGGS [r10_13_JUSTAS]	0.0515 ± 0.17	0.566 ± 0.044	0.253 ± 0.13
SAGGSAGGSAGGMKIIKLEDDYYLIPFDSPEQLKAYTDIFEKLGLPVVVLPDGRLLVKGSAGGSAGGSAGGS [r10_1027_TrMRF]	2.52 ± 0.026	2.39 ± 0.053	2.49 ± 0.054
SAGGSAGGSAGGMKIPPSLLTEVKESIVPTPEGSTKITTVTAKVPGTGEVVTYTLTTPVASAGGSAGGSAGG [r7_348_JUSTAS]	-0.744 ± 0.31	0.0354 ± 0.032	-0.242 ± 0.11
SAGGSAGGSAGGMKKKKLKEGVEIEFFREGDYLYVTTKIPETGKEETKKVKKVPKDIPLSAGGSAGGSAGGS [r10_240_JUSTAS]	0.298 ± 0.14	-0.245 ± 0.45	0.22 ± 0.23
SAGGSAGGSAGGMKLVITLKDPNSDKTYTVTLPIEDKSPEEVIQEIEEKLGVEVVEVKPESAGGSAGGSAGG [r7_590_JUSTAS]	2.04 ± 0.021	2.06 ± 0.083	2.02 ± 0.06
SAGGSAGGSAGGMKPGEKPEVEYRVRIYDADTGEWREVPLEDLKKLKLPPGAVVEIEKVSAGGSAGGSAGGS [r10_1121_TrROS_Hall]	3.42 ± 0.067	2.01 ± 0.14	2.93 ± 0.15
SAGGSAGGSAGGMKVIKLPGLTVEIEPGYSPSEPVKITITDPKTGKVTEYEIKIPPEELPSAGGSAGGSAGG [r7_834_JUSTAS]	1.26 ± 0.021	0.915 ± 0.052	1.13 ± 0.042
SAGGSAGGSAGGMKVYRIGPDLYLVENEDGSLRIYNRDTGKVFTFKPGETITITIPPELLSAGGSAGGSAGG [r7_299_TrROS_Hall]	2.79 ± 0.059	2.18 ± 0.075	2.7 ± 0.11
SAGGSAGGSAGGMLSTNVTRTITLTYFDPNGSKPIETQTVTVTTFVEIFQEPVGNWTAASAGGSAGGSAGGS [r10_50_JUSTAS]	0.759 ± 0.21	0.789 ± 0.08	0.786 ± 0.15
SAGGSAGGSAGGMLTIVEVLSKDPEKPVYTVKVKFPDGSEKTLEVPPELLSNPEKEIVLESAGGSAGGSAGG [r7_117_JUSTAS]	1.44 ± 0.07	1.23 ± 0.072	1.47 ± 0.12
SAGGSAGGSAGGMLVDPSTNTVTINLPPNTTLTFNYPDSTLTVTVPANETLTVTFPLTSSAGGSAGGSAGGS [r10_464_JUSTAS]	0.947 ± 0.049	2.19 ± 0.075	1.67 ± 0.1
SAGGSAGGSAGGMNIKVLKEFEFETEDGVPVRYLLVDAGGEEGETVVIKETPTSIEIIPFSAGGSAGGSAGG [r7_960_TrMRF]	0.511 ± 0.17	0.856 ± 0.025	0.694 ± 0.11
SAGGSAGGSAGGMNPIVIKKTYPVKSGSFTVTLPEGVTPVSFEKDPNSDTITIEVLVEPSAGGSAGGSAGGS [r10_906_JUSTAS]	-0.713 ± 0.37	0.63 ± 0.067	0.0999 ± 0.3
SAGGSAGGSAGGMPGVTTTSTTTTTLPNGTVVTTTTTTVLLPTGTTVTVTVTTTTSATTSSAGGSAGGSAGG [r11_274_JUSTAS]	2.61 ± 0.088	2.77 ± 0.11	2.68 ± 0.12
SAGGSAGGSAGGMPIPIIVIPTPPNGNFTPEQIKEVAEKLNDPVVLTEESDNSRVILVGSAGGSAGGSAGGS [r10_642_TrMRF]	-0.135 ± 0.08	0.928 ± 0.029	0.519 ± 0.16
SAGGSAGGSAGGMPVLVNIELPIPGTNETLTLEVEAEGPGGEEVEKEAQETAEKVLEESSAGGSAGGSAGGS [r10_863_JUSTAS]	1.79 ± 0.068	1.58 ± 0.1	1.72 ± 0.11
SAGGSAGGSAGGMREIAREIWEEYNNPVTIRIRNPNGKHEPFRFPDDPEDIPGWDIDDITSAGGSAGGSAGG [r7_998_TrROS]	0.79 ± 0.098	-0.831 ± 0.3	0.463 ± 0.082
SAGGSAGGSAGGMREVIRRPEASGEVTVEPLPEDERRPVDFGSDGVVLWREGDEVVVEPSAGGSAGGSAGGS [r10_817_JUSTAS]	0.72 ± 0.043	0.00105 ± 0.087	0.562 ± 0.08
SAGGSAGGSAGGMRKYLVTLKPPNGPVTRYILPSEEEIKEFVAPLNAEYEVTPLSEDVPPSAGGSAGGSAGG [r7_456_JUSTAS]	0.72 ± 0.072	0.0557 ± 0.1	0.515 ± 0.088
SAGGSAGGSAGGMSFPVSSVEYRKDPNSDTPLVFITLPDGTVIIERLDTGTSSVVPVSQLSAGGSAGGSAGG [r11_922_JUSTAS]	1.3 ± 0.15	1.12 ± 0.037	1.21 ± 0.067
